Data taken from paper PMC5799372, “A NIN-LIKE PROTEIN mediates nitrate-induced control of root nodule symbiosis in Lotus japonicus”.
Numbering of substitutions follows the chain as printed.

Columns and labels:
[1] = biological target: T1, NRSYM1(531-976)-myc (Lotus japonicus (WT, MG-20?), UniProt A0A2Z5V8A6 531-976); assay: EMSA; 20 mM HEPES-KOH pH 7.9, 50 mM KCl, 1 mM DTT, 4% glycerol, 0.1% Triton X-100, BSA (2 mg) and salmon sperm DNA (1 mg) as printed, 10 ul, 30 min room temperature; conditions: protein: ivt, tags: 3xMyc (cds cloned downstream of the tag, N-terminal), 5' overhang 4 nt (ggtg) on both strands as printed
[2] = biological target: T1, NRSYM1(531-976)-myc; assay: competition; unlabeled competitor 20x/100x vs CLE-RS2-1 probe; 20 mM HEPES-KOH pH 7.9, 50 mM KCl, 1 mM DTT, 4% glycerol, 0.1% Triton X-100, BSA (2 mg) and salmon sperm DNA (1 mg) as printed, 10 ul, 30 min room temperature; conditions: protein: ivt; tags: 3xMyc (cds cloned downstream of the tag, N-terminal); label: biotin (probe); 5' overhang 4 nt (ggtg) on both strands as printed

T1 sequence (A0A2Z5V8A6 entry or part of it): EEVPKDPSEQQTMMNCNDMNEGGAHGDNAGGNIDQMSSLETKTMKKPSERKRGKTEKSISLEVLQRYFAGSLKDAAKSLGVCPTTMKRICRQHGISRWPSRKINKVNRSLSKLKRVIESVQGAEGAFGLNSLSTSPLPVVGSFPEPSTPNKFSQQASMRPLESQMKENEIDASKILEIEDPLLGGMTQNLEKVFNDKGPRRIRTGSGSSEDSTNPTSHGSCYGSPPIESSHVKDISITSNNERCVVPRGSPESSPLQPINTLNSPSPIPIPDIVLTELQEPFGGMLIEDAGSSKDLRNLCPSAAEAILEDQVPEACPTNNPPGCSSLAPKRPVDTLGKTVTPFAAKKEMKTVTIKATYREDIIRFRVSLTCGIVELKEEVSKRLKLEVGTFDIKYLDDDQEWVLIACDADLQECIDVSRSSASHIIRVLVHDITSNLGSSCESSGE

B1: CLE-RS2-1 (dsDNA)
DNA 1: GGTGTGTGAGTTCTGACCCTTAAGCCTTGGAAAGGACAGTCATGCAA
DNA 2: GGTGTTGCATGACTGTCCTTTCCAAGGCTTAAGGGTCAGAACTCACA
- binding result ([1]; label: biotin (probe)): binds

B2: CLE-RS2-3 (dsDNA)
DNA 1: GGTGGTATCAAACTGACCCCTAGTTTCAGTCCAAAGCCACCTTGATTG
DNA 2: GGTGCAATCAAGGTGGCTTTGGACTGAAACTAGGGGTCAGTTTGATAC
- binding result ([1]; label: biotin (probe)): binds

B3: CLE-RS2-1m (dsDNA)
DNA 1: B1 DNA 1 with C17G, C18G, C19G, T20A, T21A
DNA 2: B1 DNA 2 with A31T, A32T, G33C, G34C, G35C
- binding result [2]: no binding

B4: CLE-RS2-4 (dsDNA)
DNA 1: GGTGATATATTCATGATCTTTAATTCACTTGAAGAGTTAGTGATTGAT
DNA 2: GGTGATCAATCACTAACTCTTCAAGTGAATTAAAGATCATGAATATAT
- binding result ([1]; label: biotin (probe)): binds

B5: LjNIR1-3 (dsDNA)
DNA 1: GGTGACACAAACACGACCCTTTGTCACAACCAAAGGTCCATTGTAGCA
DNA 2: GGTGTGCTACAATGGACCTTTGGTTGTGACAAAGGGTCGTGTTTGTGT
- binding result ([1]; label: biotin (probe)): binds

B6: LjNIR1-3m1 (dsDNA)
DNA 1: B5 DNA 1 with C17G, C18G, C19G, T20A, T21A
DNA 2: B5 DNA 2 with A32T, A33T, G34C, G35C, G36C
- binding result ([1]; label: biotin): no binding
